Measurements published in the DeepSol protein solubility set.

Assay: soluble on expression in E. coli; label from the status in PepcDB or PDB records

Question: For “MASVSFGGLATGLDSNTLISQLMYLERAPERILESKKSTISSQIDVYTQVTNLLNSFKTLAAGMNTATGFMGKTTSVGDSTVATATSSSIASPGSFNLTVNSLAKNERQVVDQGYASADALNFKTGTFTISGVATPITIAEGQNSLQGIASAINASGANVTASIINDGSANPYRLVITGKDTNNYTLNFSGLTGDPASGSAYTTPTITKSGPTYQAGAAASFSVNGIAITKTSNIVTDVIPGVTLTLLKEGGATTTVTVGNDTSGVTKKINDFVGAYNAAMSQINKQSEYNATTKKGGVLSGDSTLRSVKTQLQNVLTTPVAGITGKYSTLADIGITTDRSNGTLTVDATKLADALGSNFNDVVELFTKNGGVSNLDTEKYGVAEQFRKVIDRFTHAYEGPSSTANGIISSRVRGLNDTIKSIDDQIDAMEVRMERKEEALKKQFTAMETLVSSLTTQGNSLISYLYGS”, which “soluble on expression in E. coli” value is on record?
Answer: not soluble

Question: For “MASVTLKNVCKAYGDVLISKNVDLEIQEGEFVVFVGPSGCGKSTLLRCIAGLEDITSGDLYIGEQRMNDVEPSKRGVGMVFQSYALYPHLNLYDNMSFGLKLSKADKSEIKKRVDHAAEILQLSHLLDRQPKALSGGQRQRVAIGRTLVSQPNVFLLDEPLSNLDAALRVQMRSEITKLQRKLGCTMIYVTHDQVEAMTMADKIVVLDAGFVSQVGKPLELYHYPQNRFVAGFIGSPKMNFMSVFIEGVEKDRVQVQLSNGTTFWIPVDGTTVTRGERMSLGIRPEHLVEAEHGDAKIEGKVMIVEKLGNETQVYMNLKGSDSDVIYRQPDTLDVETGDTLTIGIPAHRCHLFHSDGRACRRLHKEKGVDLPA”, which “soluble on expression in E. coli” value is on record?
Answer: not soluble

Question: Which “soluble on expression in E. coli” value does the source give for “MASWSHPQFEKGASTSLYKKAGLMDSQRSTLVHWFRKGLRLHDNPALSHIFTAANAAPGRYFVRPIFILDPGILDWMQVGANRWRFLQQTLEDLDNQLRKLNSRLFVVRGKPAEVFPRIFKSWRVEMLTFETDIEPYSVTRDAAVQKLAKAEGVRVETHCSHTIYNPELVIAKNLGKAPITYQKFLGIVEQLKVPKVLGVPEKLKNMPTPPKDEVEQKDSAAYDCPTMKQLVKRPEELGPNKFPGGETEALRRMEESLKDEIWVARFEKPNTAPNSLEPSTTVLSPYLKFGCLSARLFNQKLKEIIKRQPKHSQPPVSLIGQLMWREFYYTVAAAEPNFDRMLGNVYCMQIPWQEHPDHLEAWTHGRTGYPFIDAIMRQLRQEGWIHNLARHAVACFLTRGDLWISWEEGQRVFEQLLLDQDWALNAGNWMWLSASAFFHQYFRVYSPVAFGKKTDPQGHYIRKYVPELSKYPAGCIYEPWKASLVDQRAYGCVLGTDYPHRIVKHEVVHKENIKRMGAAYKVNREVRTGKEEESSFEEKSET” here?
Answer: soluble

Question: For “MASYRKRENGLWEYRISYKTIDGKYKRKEKGGFKTKKLAQAAAIEIEKKLTQNILTNDEVTLYDFVKTWSEVYKRPYVKDKTWETYSKNFKHIKNYFQELKVKDITPLYYQKKLNEFGEKYAQETLEKFHYQIKGAMKVAVREQVVTFNFAEGAKVKSQVEPKNEEEDFLEEREYKALLALTRENIQYVSYFTLYLLAVTGLRFSEAMGLTWSDIDFKNGILDINKSFDYSNTQDFADLKNESSKRKVPIDSNTIDILREYKKNHWQANIKNRVCFGVSNSACNKLIKKIVGRKVRNHSLRHTYASFLILNGVDIVTISKLLGHESPDITLKVYTHQMEALAERNFEKIKNIFLVA”, which “soluble on expression in E. coli” value is on record?
Answer: not soluble

Question: For “MATGTATEKPKIVWNEGRHRFETDDHEAFIEYKMKNDGKVMDLVRTFVPPSKAGLGLASHLCVAAFEHASEHSFSIIPTCSYVSVYISSFLKKLR”, which “soluble on expression in E. coli” value is on record?
Answer: not soluble

Question: For “MATIGLDRLYYAKITENENGEETYATPVPLAKAITAELSVELAEATLYADDGAAEVVKEFQSGTLTLGVADIGVDAAEVLTGATLDDNKVLISTSEDGGAPVAIGFRAKKANGKYRYFWLYRVKFGIPATNLQTKGDSITFSTPTIEGTVMRRNKPDGQGKHPWKAEVSEDDPGVLPETIAGWYTEVYEPVFAVGGGS”, which “soluble on expression in E. coli” value is on record?
Answer: not soluble

Question: With “MATITQRNGKWRVQIRMKGVSRSATFERASDAKAWAARIESQIMDGIQGNAPRNTIFADLIRRYLSEVTPSKRGAREESYRIGRALKTPLAKVRLADLRPQDFADWRDQRLQEVSPTSVGRELTTLSAVCEHAMKEWGLLRENPVRKISKPKKSRARTRRPTEQEIADICAALLYRPNEKPKMAVQRVAVAVLFAIETAMRAGEICGLKWADVNMRRRIAHLPITKNGDSRDVPLSLRAAELIEQLRGIDDTWVFSLDAKSLDVLFRRARDNCGIQGLHFHDTRREALTRLSKKVPVEVLAKISGHRDLRILLNVYYRPDMADIAKMLD” as the sequence, how does the “soluble on expression in E. coli” value read?
Answer: not soluble

Question: Which “soluble on expression in E. coli” value does the source give for “MATLDHLLEELFEACSVFDKFPVSFNRTLIDELVDCLDFEEPTLTVIRKFVRNLDFEGKLAPIRMVIRLLDAAIKNNKFRNEDDLLLEFIQKSEAILSRPRNRLLLQDLFNFYTNPVVFAVREPESWLVVIRWVMNEFADEYLSCFHIDLFVKFICQIPSAAEARRLNIISEAISPDLVGSFSARIIYNYAQDLTIDECNTFVNNFRLSSLGYRWPAIRVLLKMRELHPSLVIPLAPASWTEENRRVDVICRLLFPMDFDTLKMMDVQLENVEALVDSVLDSPVDIDLKEKMLDHMNERQFEKYFDELLSFAKIESNDVNIHVTSALRSLPQHATRQKVAQLFEALGDKILDLALILNLSLAYGSNAFDFPEFEKFKDRYSKLVSDAIKAPVGESNAERIITVLECMKLFPCFLPVKADETAVYLDFSNSLTLNEKGAREVPVKTTGHEKMHVTVLLTARADGYKCRPYVLLPRTRPDKEIAARFKNSLQLSWCNRTFFNDEVTEDYLNTIIGPPFFGKRLLAWDAFRCHISDATKRVLKNLKVDTAVVPGGCTKFVQAPDVYWNSPFKASIRRSYEDWMVHGQKSFTKSNNMRPPSMLQYLEWIENAWNDLPKDLILKSFKGCALTIATDGSEDNQIHCFAPNGSIPSGLDLLNSTRIENSLVDLVQDIGIDESQEEGNESDNSIISVG” here?
Answer: not soluble

Question: Which “soluble on expression in E. coli” value does the source give for “MATQSDLMELEMAMDPDRKAAVSHWQQQSYLDSGIHSGATTTAPSLSGKGNPEDDDVDNQVLYEWEQGFNQSFNQEQVADIDGQYAMTRAQRVRAAMFPETLDEGMQIPSTQFDSAHPTNVQRLAEPSQMLKHAVVNLINYQDDAELATRAIPELTKLLNDEDQVVVNKAAVMVHQLSKKEASRHAIMRSPQMVSAIVRTMQNTNDVETARCTSGTLHNLSHHREGLLAIFKSGGIPALVNMLGSPVDSVLFHAITTLHNLLLHQEGAKMAVRLAGGLQKMVALLNKTNVKFLAITTDCLQILAYGNQESKLIILASGGPQALVNIMRTYTYEKLLWTTSRVLKVLSVCSSNKPAIVEAGGMQALGLHLTDPSQRLVQNCLWTLRNLSDAATKQEGMEGLLGTLVQLLGSDDINVVTCAAGILSNLTCNNYKNKMMVCQVGGIEALVRTVLRAGDREDITEPAICALRHLTSRHQDAEMAQNAVRLHYGLPVVVKLLHPPSHWPLIKATVGLIRNLALCPANHAPLREQGAIPRLVQLLVRAHQDTQRRTSMGGTQQQFVEGVRMEEIVEACTGALHILARDIHNRIVIRGLNTIPLFVQLLYSPIENIQRVAAGVLCELAQDKEAAEAIEAEGATAPLTELLHSRNEGVATYAAAVLFRMSEDKPQDYKKRLSVELTSSLFRTEPMTWNETGDLGLDIGAQGEPLGYRQDDPSYRSFHSGGYGQDAMGMDPMMEHEMAGHHPGPDYPVDGLPDLGHTQDLIDGLPPGDSNQLAWFDTDL” here?
Answer: soluble

Question: Which “soluble on expression in E. coli” value does the source give for “MATVTKAPKKQIQFADDMQEFTKFPTKTGRRSLSRSISQSSTDSYSSAASYTDSSDDEVSPREKQQTNSKGSSNFCVKNIKQAEFGRREIEIAEQDMSALISLRKRAQGEKPLAGAKIVGCTHITAQTAVLIETLCALGAQCRWSACNIYSTQNEVAAALAEAGVAVFAWKGESEDDFWWCIDRCVNMDGWQANMILDDGGDLTHWVYKKYPNVFKKIRGIVEESVTGVHRLYQLSKAGKLCVPAMNVNDSVTKQKFDNLYCCRESILDGLKRTTDVMFGGKQVVVCGYGEVGKGCCAALKALGAIVYITEIDPICALQACMDGFRVVKLNEVIRQVDVVITCTGNKNVVTREHLDRMKNSCIVCNMGHSNTEIDVTSLRTPELTWERVRSQVDHVIWPDGKRVVLLAEGRLLNLSCSTVPTFVLSITATTQALALIELYNAPEGRYKQDVYLLPKKMDEYVASLHLPSFDAHLTELTDDQAKYLGLNKNGPFKPNYYRY” here?
Answer: not soluble
